Test: yeast display, Sf9 membrane polyspecificity reagent, FACS + sequencing; frameworks hold sequencing errors
Procedure, shortened: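 A nanobody's polyreactivity label depends on the gate it was sorted from. Yeast display cells were stained with 10% biotinylated, detergent-solubilized Sf9 membrane reagent for 1 hour at 4 °C, enriched on streptavidin microbeads and sorted by FACS. The low and high (top ~1%) gates were set on anti-HA fluorescence for expression and streptavidin fluorescence for reagent binding.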

Sequence	polyreactivity (PSR sort gate)
QVQLVESGGGLVQAGCSLRLTCAASGSIFPYYAMGWYRQAPGKERELVAAISYSGGRTRYADSVKGRFTISRDNAKNTVYLQMNSLKPEHTAVYYCAVVDRHQPYGRQLDYWGQGTQVTVSS	low polyreactivity
QVQLVESGGGLVQAGCSRRLSCSASGSIFRGNSMGWYRPAPGKERELVAAITGSGGNTYYADSVKGRFTISRDNAKNTVYLQMNSLKPEDTAFYYCIADGWNTYIGPRRYRYDYWGQGTQVTVSS	low polyreactivity
QVQLVESGGGLVQAGCTLRLSCAASGSIAYNAMGWYRQAPGKERELVASIRASGGRTYYADSVKGRFTISRDNAKNSVYLQMNSLKPEDTAVYYCAAYHGSKPLHHKGYDYWGQGTQVSVSS	low polyreactivity
QVQLVESGGGLVQAGDSLRLSCAASGSTFTRNAMGWYRQAPGKERDLVASITRGGSTYADSVKGRFTISRDNAKNTVYLQMYSLKPEDTAVYYCAKSVTCWRGLWYTPRNYFWGQGSQVTVSS	high polyreactivity
QVQLVESGGGLVQAGFSLRLSCAASGSIFDYYTMGCYRQAPGKERELVATIRSGDSTNYADSVKGRFTISRDNAKNTVYLQMNSLKPEDTAVYYFAADDGAYPTLYDYWGQGTQVTVSS	low polyreactivity
QVQLVESGGGLVQAGGCLRLSCAASGFTFWWYAMGWYRQAPGKERELVAAISSGGSTNYADSVKGRFTLSRDNAKNTVYLQMNSLQPEDTAVYYCARRLWYSDRYSARWQYDYWGQVTQVTVSS	high polyreactivity
QVQLVESGGGLVQAGGCLRLSCAASGNTFYGYAMGWYRQAPGKERELVASITLSGDSTYYADSVKGRFTISRDNAMNTVYLQMNSLKPEYTAVYYCAGVYTYPLGYYHYTYDYWGQGTQVTVSS	low polyreactivity
QVQLVESGGGLVQAGGCLRLSCAASGRIFYANTMGWYRQAPGIEWELVASMYGAVGTYADSVKGRFTISRDKAKNTVSLQMNSLKPEDTAVYYCNAYLTRPVEEYLWDGYYYWGQGTQVTVSA	low polyreactivity
QVQLVESGGGLVQAGGCLRLSCAASGSIFFGYAMGWYRQAPGKERELVAAINGSVITSYADSVKGRFTISRDNAKNTVYLQMNSLKPEDTAYYCNTGSTWGAVIANYDHWGQGTQVTVSS	low polyreactivity
QVQLVESGGGLVQAGGCLRLSCAASGSTFEDYAMGWYRQATGKERALVAAINSGGSTYYADSVKGRFTFSRHNAKNTVYLQMNSQKPEDTAVYYCAARIYYWTYRYNYWGQGTQVTVSS	high polyreactivity
QVQLVESGGGLVQAGGCLRLSCAASGSTFLRNTMGWYRLAPGKERELVATISAGASNTYYADSVKGRFTISRDNAKNTDYLQKNSLTPEATAVYYCAARLLTWYYGIRYYWGQGTQVTVSS	high polyreactivity
QVQLVESGGGLVQAGGCLRVSCAASGNICVIYAMGGDRKAPGKERELLAAINWNSGRTYYADSVKGRFTISRDNAKNTVYLQMNSLKPEDTAVYYCAARTWGFGYPEFGYWGQGTQVTVSS	high polyreactivity
QVQLVESGGGLVQAGGGLRLSCAASGITFVDYDMGWYRQAPGKERELDAAITTGSSTYYADSVKGRFTISRDNAKNTVYLQMNSLKPEDTAVYYCARDFEYDYYQQWSYGYWGQGTQVTVSS	low polyreactivity
QVQLVESGGGLVQAGGGLRLSCAASGSIFGSYAMGWYRQAPAKERELVAGITYRGSSTYYADSVKGRFTISRDNAKNTVYLQMTSLKPEDSAVYYCAADPVFDEYDYWGQGTQVTVSS	low polyreactivity
QVQLVESGGGLVQAGGGLRLSCSASGYIFGYTAMGWYRQAPGKERELVAAISYSGGSTYYADSVKGRFTISRDNAKNTVYLQMNSLKPVDTAVYYCAAYRKGTWPGYLGVGYDYWGQGTQVTVSS	high polyreactivity
QVQLVESGGGLVQAGGILRFSCAASGSTFGLNAMGWYRQAPGQERELVAAISWSGGTTYYADSVKGRFTISRDNAKNTVYLQMNSLTPEDTAVYYCAADVYSSWGYYEVYYWGQGTQVTVSS	high polyreactivity
QVQLVESGGGLVQAGGILRISCAASGFIFYPYAMGWYRQAPGKERELVATIDGGGSTYYADSVKGRFTISRDNAKNTVYLQMNSLKPEDSAVYYCDASQWSNYDNWGQGNQVTVSS	low polyreactivity
QVQLVESGGGLVQAGGILRISCAASGSISSYYAMGWYRPAPGKERELVAAITSGGRTYFADSVKGRFTISRDNAKNTVYFQMNSLKQEDTAVYYCNARTARNPIKGRASDYWGQGTQVTVSS	high polyreactivity
QVQLVESGGGLVQAGGILRLGCAASGSTFAWNAMGWYRPAPGKERELVATISRSGSTNYADSVKGRFTISRDNAKNTVYLQMNCLKPEVTAVYYCARDKRYYRQYYYHTRYYYWGQGTQVTVSS	high polyreactivity
QVQLVESGGGLVQAGGILRLICAASGRIFKLNALGWYRQAPGKERELDAAITFSGGSTYYADSVKGRFRISRDNVNYTVYLQMNSMKPEYTGVYYCNAEFSNVELYYWGQGTHVTVSS	low polyreactivity
QVQLVESGGGLVQAGGILRLSCAASGFIFQFNAMGWYRQAPGKEMEMDASISVSGGSTYYADSVKGRFTISRDNAKNTVYLQMNSLKPEDTAVYYCAATQRRYTYGHDYWGQGTQVTVSS	low polyreactivity
QVQLVESGGGLVQAGGILRLSCAASGFTFGWNAMGWYRQAPGKERELVAAITSGGITNYADSVKGRFTISRDNAKNTVYLQMNSLKPEDTAVYYCNARPTSRRSWYYWKGYDYWGQGTQVTVSS	high polyreactivity

Sequence	polyreactivity (PSR sort gate)
QVQLVESGGGLVQAGGILRLSCAASGFTFNRNAMGWYRQAPGKERELVAAISWSGTSTYYADSVKGRFTISRDNAKTTVYLQMNSLKPEDTAVYYCAARVKGQWNTYDSWGQGTQVTVST	high polyreactivity
QVQLVESGGGLVQAGGILRLSCAASGIIFSQYTMGWYRQAPGKESELVAAISYTGGRTYYADSVKGRFTISRDNAMNTVYLQMNSLKPEDTAVYYCAADFPIVWYEEYYWGQGTQVTVSS	high polyreactivity
QVQLVESGGGLVQAGGILRLSCAASGITFGRNAMGWYRQAPGKERELVAAITISGGGTYYADSVKGRFTISRDNAKNTVYLQMNSLKPEDTAVYYCAADRSTVWVHYPHAGGSWGHGTQVTVSS	high polyreactivity
QVQLVESGGGLVQAGGILRLSCAASGLIFYYYAMGWYRQAPGKERELVAAIRTNYADSVKGRFTISRDNAKNTVYLQMNSLKPEDTAVYYCAAESSHSPTSAFDYWGQGTQVTVSS	low polyreactivity
QVQLVESGGGLVQAGGILRLSCAASGLTFRDYAMGWYRQAPGKERELVAAISWNGSSTNYADSVKGRFTISRDNAKNTVYLQMNSLKPEDTSVYYCNAYYYYRRPLEGGYWGQGTQVTVSS	low polyreactivity
QVQLVESGGGLVQAGGILRLSCAASGRIFRPNAMGWYRQAPGKERELVAAISSGGSTYYADSVKGRFTLSRDNAKNSVYLQMNSLKPEDSAVYYCNAKASFWSPYDYWGQGTQVTVSS	high polyreactivity
QVQLVESGGGLVQAGGILRLSCAASGRILPSNAMGWYRQAPGKERELVAGITSGGSTDYADSVKGRFTISRDNAKNTVYLQMNSLKQEDTAVYYCNKPFPYYPDGPNGYDYWGLGTQVTVSS	low polyreactivity
QVQLVESGGGLVQAGGILRLSCAASGRIYEIYAMGWYRQAPGKDRELVAAISWRGVSTYYADSVKGPFTISRDNAKNNVYLQMNSLKPEDTAVYYCNKDVDYFWYVEYDYWGQGTQVTVSS	low polyreactivity
QVQLVESGGGLVQAGGILRLSCAASGRTFFVYAMGWYRPAPGTEWEGVAAISNTGGRTYYADSVKGRFTISRDYAKNTVYFQMNSLKPEDTAVYYCAAPYSGPYRSYEYYWGQGTHVTVSS	low polyreactivity
QVQLVESGGGLVQAGGILRLSCAASGRTFGWNAMGWYRQAPGKERELVAAISWSGTNTYYADSVKGRFTISRDNAKNTVYLQMNCLNPEDTAVYYCAARDWTGSWNGYWYWEYNYWGQGTQVTVSS	low polyreactivity
QVQLVESGGGLVQAGGILRLSCAASGRTFSVNAMGWYRQAPGKERELVAAITRRGGSTYYADSVKGRFTISRDYAKNTVYLQMKSLKPEDTAVYYCAAEFVTYYSSSKRAYYYWGQGTQVTVSS	high polyreactivity
QVQLVESGGGLVQAGGILRLSCAASGSIFNYYAMGWYRQAPGKEREMVAAITTSGGRTYYADSVKGRFTISRDNAKNTVYLQMNSLKPEDTAVYYCAARGYGRRAYVYRYDYWGQGTQVTVSS	high polyreactivity
QVQLVESGGGLVQAGGILRLSCAASGSIFSPNAKGWYRQAPGKVRQLVAAIDFSAGSTYYADSVKGRFTISRDNAKNTVYLQMHSLKPEDTAVYYCAADYYYSYCYWFSSSYGYWGPGTQVTVSS	high polyreactivity
QVQLVESGGGLVQAGGILRLSCAASGSIFVNNAMGLYRQAPGKERELVAAITSGTRTNYADSVKGRFTISRDNAKNTVYLQMNSLKPEDTAVYYCAAVKYRYAYVPPRFDYWGQGTQVTVSS	low polyreactivity
QVQLVESGGGLVQAGGILRLSCAASGSIFYAYAMGWYRQAPGKERELVASITWSGASTYYADSVKGRFTISRDNAKNTVYLQMNSLKPEDTAVYYCAATDQKLSLDYSSYEYWGQGTQVTVSS	low polyreactivity
QVQLVESGGGLVQAGGILRLSCAASGSIFYRYAMGWYRPAPGKERELVAAINWSGGITYYADSEKGRFTISRDNAKITFYLQMISLKPEDTAVYYCAARTHVYNWGYYYWGQGTQVTVSS	high polyreactivity
QVQLVESGGGLVQAGGILRLSCAASGSKIGYYAMVWYRQAPGKERELVAAISAGDRTYYADSVKGRFTISRDNAKNTVYLQMNSLKPEDTAVYYCAAASYYQSYRYGYWGQGTQVTVSS	high polyreactivity
QVQLVESGGGLVQAGGILRLSCAASGSTFARYAMGWYRQEPGKERELVAVIRSGGSTNYADSVKGRFTISRDNAKNTVYLQMNSLKPEDTAGAADQWTIHRWATYGYWGQGTQVTVSS	low polyreactivity
QVQLVESGGGLVQAGGILRLSCAASGSTFAVNAMGWYRQAPGKERELVAAISTSGGSTYYADSVKGRFTISRDNAKNTVYLQMNSLKPEDTSVYDCAAGRVRRRVWYNYWGQGTQVTVSS	high polyreactivity
QVQLVESGGGLVQAGGILRLSCAASGSTFAVYAMGWYRQAPGKERELVAAISRSGGRTYYADSVKGRFTISRDNAKNTVYLQMNCLKPDDTAVYYCAAPSTCSYGSDYWGPGTQVTVSS	high polyreactivity
QVQLVESGGGLVQAGGILRLSCAASGSTFGDYTMGWYRHAPGKERELVAAITLTGGSTFYSDSVKGRFTISRDNAKNTVYLQMNSLKPVDTAVYYCNTDVIRWVGGTWHRYYYWGQGTQVTVSS	low polyreactivity
